Results published in US20210079089A1 (SURROZEN OPERATING, published 2021).
One block for each binder: values may come before it.

Tests used:
LRP6E3E4_O75581_631-1246 [1] = biological target: T1, LRP6E3E4_O75581_631-1246 (Homo sapiens (Human), UniProt O75581 631-1246, biotinylated in the BLI/SPR assays (C-terminal biotin acceptor peptide)); experiment: Octet BLI or BIAcore SPR
T1 construct: The entry holds residues 631-1246 of UniProt O75581 followed by a biotin acceptor peptide and eight His; For crystals the complex was treated with carboxypeptidase A and B
T1 sequence: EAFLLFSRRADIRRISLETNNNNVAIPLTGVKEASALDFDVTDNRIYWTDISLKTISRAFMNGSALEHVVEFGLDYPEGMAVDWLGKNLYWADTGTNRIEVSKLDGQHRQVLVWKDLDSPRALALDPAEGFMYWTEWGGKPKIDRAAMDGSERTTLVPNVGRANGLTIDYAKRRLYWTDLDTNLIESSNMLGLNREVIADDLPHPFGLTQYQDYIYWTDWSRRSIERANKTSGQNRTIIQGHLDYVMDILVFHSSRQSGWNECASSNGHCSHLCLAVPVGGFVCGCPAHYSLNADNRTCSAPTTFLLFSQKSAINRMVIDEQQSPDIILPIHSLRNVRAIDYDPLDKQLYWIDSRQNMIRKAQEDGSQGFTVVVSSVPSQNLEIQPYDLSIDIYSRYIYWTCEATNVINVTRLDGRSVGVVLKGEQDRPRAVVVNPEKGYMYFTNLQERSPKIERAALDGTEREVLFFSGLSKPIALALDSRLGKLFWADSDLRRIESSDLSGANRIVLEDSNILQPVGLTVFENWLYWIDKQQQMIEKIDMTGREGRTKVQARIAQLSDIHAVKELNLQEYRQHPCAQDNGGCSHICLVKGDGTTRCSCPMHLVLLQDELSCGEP

LRP6E3E4_O75581_631-1246 [2] = biological target: T1, LRP6E3E4_O75581_631-1246; experiment: Octet BLI, affinity class
Method: (§1) Binding kinetics of antibody fragments to LRP5 extracellular domain (LRP5 ECD) and/or LRP6 extracellular domain (LRP6 ECD) protein targets was determined by bio-layer interferometry (BLI) using Octet Red 96 (PALL ForteBio, Fremont, Calif.) instruments at 30° C., 1000 rpm with streptavidin (SA) biosensors. C-terminal biotinylated LRP ECD recombinant protein was diluted to 20 nM in the running buffer (PBS, 0.05% Tween-20, 0.5% BSA, pH 7.2) and captured to the SA biosensor until coupling length reached 0.2 nm. Following capture of the LRP5 or LRP6, the SA biosensor with captured biotinylated-LRP5 or biotinylated LRP6 was dipped into wells containing the relevant antibody fragment at […] (0, 1.37, 4.12, 12.4, 37, 111.1, 333.3, 1000 nM) in running buffer, plus a well with only running buffer as a reference channel. KD was determined by global fitting, 1:1 binding model according to manufacturer recommended settings.

biotinylated-LRP6 CRD = biological target: T2, biotinylated-LRP6 CRD (UniProt O75581 631-1246, limits assumed, biotinylated); experiment: Octet BLI, biotinylated LRP6; wild type 009S-E04, not an alanine mutant
T2 construct: LRP6 has no CRD
T2 sequence (looked up): T1 sequence
Method: as §1
One antibody fragment, 009S-E04, was selected for alanine-scanning mutagenesis of CDRs, and the respective LRP6 binding affinities of the various mutants were determined by Octet BLI as described in Example 1.

LRP6E3E4_O75581_631-1246 [3] = biological target: T3, LRP6E3E4_O75581_631-1246 (Homo sapiens (Human), UniProt O75581 631-1246); experiment: co-crystal structure (figure legend)
T3 construct: also called LRP6E3E4 construct used for structural studies
T3 sequence: T1 sequence
Method: (§2) Structure of Lrp6E3E4:VHH/Fab complexes were determined by molecular replacement method using Phaser [Phaser crystallographic software. A. J. McCoy, R. W. Grosse-Kunstleve, P. D. Adams, M. D. Winn, L. C. Storoni, and R. J. Read. J Appl Crystallogr 40, 658-674 (2007)] with published structures Lrp6E3E4 [PDB code: 4AOP; Chen S, Bubeck D, MacDonald B T, Liang W X, Mao J H, Malinauskas T, Llorca O, Aricescu A R, Siebold C, He X, Jones E Y. Dev. Cell 21 848-61 (2011)] and a VHH or sdAb [PDB code: 6B20, chain E; Gulati S, Jin H, Masuho I, Orban T, Cai Y, Pardon E, Martemyanov K A, Kiser P D, Stewart P L, Ford C P, Steyaert J, Palczewski K. Nat Commun 91996 (2018)], followed by refinement and validation by MolProbity as implemented in Phenix [PHENIX: a comprehensive Python-based system for macromolecular structure solution. P. D. Adams, P. V. Afonine, G. Bunkoczi, V. B. Chen, I. W. Davis, N. Echols, J. J. Headd, L. W. Hung, G. J. Kapral, R. W. Grosse-Kunstleve, A. J. McCoy, N. W. Moriarty, R. Oeffner, R. J. Read, D. C. Richardson, J. S. Richardson, T. C. […]
(§3) Diffraction quality crystals of Lrp6E3E4:VHH36 (concentration=14.0 mg/mL) were obtained by grid-screen optimization in a condition containing 1.6 M ammonium sulfate and 0.1 M Tris pH 8.2. […] Structure of Lrp6E3E4:VHH36 complex was determined at a resolution of 2.70 Å, and refined to Rcryst and Rfree factors of 18.6% and 22.8%, respectively.

LRP6E3E4_O75581_631-1246 [4] = biological target: T1, LRP6E3E4_O75581_631-1246; experiment: co-crystal structure, column Antigen
Method: as §2, §3

LRP6e1e2 = biological target: T4, LRP6e1e2 (UniProt O75581 20-630, limits assumed, C-terminally biotinylated); experiment: Octet BLI, affinity class
T4 construct: domain: E1E2; also called LRP6 E1E2 domains
T4 sequence (looked up): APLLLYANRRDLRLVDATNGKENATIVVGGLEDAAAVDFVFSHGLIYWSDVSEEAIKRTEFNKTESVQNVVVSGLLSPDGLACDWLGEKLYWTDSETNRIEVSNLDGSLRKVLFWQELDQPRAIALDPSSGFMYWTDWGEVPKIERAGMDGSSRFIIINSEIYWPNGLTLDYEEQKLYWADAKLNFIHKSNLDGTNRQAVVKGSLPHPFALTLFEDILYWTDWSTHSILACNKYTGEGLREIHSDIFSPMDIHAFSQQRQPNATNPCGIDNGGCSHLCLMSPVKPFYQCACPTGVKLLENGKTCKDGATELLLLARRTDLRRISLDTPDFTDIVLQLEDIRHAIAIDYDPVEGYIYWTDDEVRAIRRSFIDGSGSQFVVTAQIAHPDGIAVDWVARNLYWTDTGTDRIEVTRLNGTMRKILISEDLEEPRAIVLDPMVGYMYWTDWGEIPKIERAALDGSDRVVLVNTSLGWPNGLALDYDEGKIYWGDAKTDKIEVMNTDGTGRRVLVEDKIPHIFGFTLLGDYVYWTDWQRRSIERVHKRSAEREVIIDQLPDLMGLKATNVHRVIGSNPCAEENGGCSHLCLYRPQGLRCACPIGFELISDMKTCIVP
Method: as §1

LRP6E3E4_O75581_631-1246 [5] = biological target: T1, LRP6E3E4_O75581_631-1246; experiment: Octet BLI or BIAcore SPR; Table 1B (heavy-chain-only clones)

- Kd (LRP6E3E4_O75581_631-1246 [1]): < 500 nM
- Kd (LRP6E3E4_O75581_631-1246 [2]): < 500 nM
- Kd (biotinylated-LRP6 CRD): < 100 nM
B1: 009S-E04 (VHH)
VHH: DVQLVESGGGLVQAGGSLRLACAGSGRIFAIYDIAWYRHPPGNQRELVAMIRPVVTEIDYADSVKGRFTISRNNAMKTVYLQMNNLKPEDTAVYYCNAKRPWGSRDEYWGQGTQVTVSS

- binding result (LRP6E3E4_O75581_631-1246 [3]): binds
B2: VHH36 (013S-D05) (VHH)
VHH: QVKLEESGGGLVQAGGSLRLSCAASGRIFSIYDMGWFRQAPGKEREFVSGIRWSGGTSYADSVKGRFTISKDNAKNTIYLQMNNLKAEDTAVYYCGSRGYWGQGTLVTVSS
modifications: Gln1 modified as pyroglutamate
notes: construct of the crystal structure

- binding result (LRP6E3E4_O75581_631-1246 [4]): binds
B3: VHH36 (013S-D05) (VHH)
VHH: B2 VHH
modifications: Gln1 modified as pyroglutamate (in the crystal structure)
notes: Construct of the crystal structure, with C-terminal GSGSG-His6; the complex was treated with carboxypeptidase A and B before crystallisation

- Kd (LRP6e1e2): < 500 nM
- Kd (LRP6E3E4_O75581_631-1246 [2]): < 500 nM
- Kd (LRP6E3E4_O75581_631-1246 [5]): > 500 nM
B4: 009S-D04 (VHH)
VHH: QVKLEESGGGLVQPGGSLRLSCETSATIVSIYRINWYRQAPGKQREWVAGITSSGRTIYADSVKGRFTISRDNAKNTVYLQMNNLKPEDTAVYYCNAASTVTAWPYYGPDYWGKGTLVTVSS
